Assay results taken from patent US20080226675A1.

Key:
[1] = biological target: Apolipoprotein B mRNA-editing enzyme-catalytic polypeptide-like 3G (A3G), wild type, cmyc-tagged (human) (UniProt Q9HC16); test: cell-based or functional assay
[2] = biological target: mutant A3G D128K, cmyc-tagged (human) (UniProt Q9HC16); test: cell-based or functional assay

| Substance | percent green fluorescent 293T cells after infection with D3GFP vector produced in the presence of SIVmac Vif [1] | percent green fluorescent 293T cells after infection with D3GFPD128K vector produced in the presence of SIVmac Vif [2] | infectivity of HIV-GFP produced from D3GFP-carrying 293T cells in the presence of HIV-1 Vif, percent of control [1] | infectivity of HIV-GFP produced from D3GFPD128K-carrying 293T cells in the presence of HIV-1 Vif, percent of control [2] | inhibition of HIV-GFP replication (GFP+ 293T cells by flow cytometry) by pD3GFPD128K in the presence of HIV-1 Vif [2] |
| --- | --- | --- | --- | --- | --- |
| macaque simian immunodeficiency virus Vif (SIVmac Vif) | 24% | 26% | – | – | – |
| HIV-1 viral infectivity factor (Vif) | – | – | 89 % of control | 1 % of control | 90% |
